Reference: US5952463

How the values were obtained:
Thermolysin [1] = biological target: Thermolysin
Trypsin [2] = biological target: Trypsin
Chymotrypsin [3] = biological target: Chymotrypsin
Subtilisin [4] = biological target: Subtilisin
Thermolysin [5] = biological target: Thermolysin; remark: listed apart in the source
Trypsin [6] = biological target: Trypsin; remark: listed apart in the source
Chymotrypsin [7] = biological target: Chymotrypsin; remark: listed apart in the source
Subtilisin [8] = biological target: Subtilisin; remark: listed apart in the source
[9] = biological target: purified secretion-type Kex2 proteinase (sKEX2 product, Saccharomyces yeast) (Saccharomyces yeast) (UniProt P13134); set-up: unit not given beside the values

B1: Kexstatin (proteinase inhibitor purified from the culture fluid of Streptomyces platensis Q268) (protein)
chain: GLYAPTELVLTVGQGESRATATVQRAVTLSCMPGARGSHPNPLGACTQLRAVAGDFNAITAATSDRLCTKEWNPLVVTADGVWQGKRVSYSYTFANRCEMNIDSDTVFNF
Inhibition Ratio (%), casein Folin method (Thermolysin [1]): -5.5%
Inhibition Ratio (%), casein Folin method (Trypsin [2]): 2.4%
Inhibition Ratio (%), casein Folin method (Chymotrypsin [3]): -19%
Inhibition Ratio (%), casein Folin method (Subtilisin [4]): 87%
Inhibition Ratio (%), casein Folin method, enzyme at 1/10 molar ratio to 0.5 µg of Kexstatin (Pepsin): 0%
Inhibition Ratio (%), casein Folin method, enzyme at 1/10 molar ratio to 0.5 µg of Kexstatin (Thermolysin [5]): 8%
Inhibition Ratio (%), synthetic fluorescent substrate Bz-Arg-MCA, enzyme at 1/10 molar ratio to 0.5 µg of Kexstatin (Trypsin [6]): 49.2%
Inhibition Ratio (%), synthetic fluorescent substrate Suc-Ala-Ala-Pro-Phe-MCA, enzyme at 1/10 molar ratio to 0.5 µg of Kexstatin (Chymotrypsin [7]): 0%
Inhibition Ratio (%), synthetic fluorescent substrate Suc-Ala-Ala-Pro-Phe-MCA, enzyme at 1/10 molar ratio to 0.5 µg of Kexstatin (Subtilisin [8]): 99.5%
IC50 (amount of Kexstatin which inhibits the activity of 1 µg of Kex2 proteinase by 50%) (µg (per 1 µg of Kex2 proteinase)) [9]: 1.4
